Laboratory results published in IntAct's records for PubMed 31515488.

B1: Zyxin (Homo sapiens), Q15942 (parent)
chain: MAAPRPSPAISVSVSAPAFYAPQKKFGPVVAPKPKVNPFRPGDSEPPPAPGAQRAQMGRVGEIPPPPPEDFPLPPPPLAGDGDDAEGALGGAFPPPPPPIEESFPPAPLEEEIFPSPPPPPEEEGGPEAPIPPPPQPREKVSSIDLEIDSLSSLLDDMTKNDPFKARVSSGYVPPPVATPFSSKSSTKPAAGGTAPLPPWKSPSSSQPLPQVPAPAQSQTQFHVQPQPQPKPQVQLHVQSQTQPVSLANTQPRGPPASSPAPAPKFSPVTPKFTPVASKFSPGAPGGSGSQPNQKLGHPEALSAGTGSPQPPSFTYAQQREKPRVQEKQHPVPPPAQNQNQVRSPGAPGPLTLKEVEELEQLTQQLMQDMEHPQRQNVAVNELCGRCHQPLARAQPAVRALGQLFHIACFTCHQCAQQLQGQQFYSLEGAPYCEGCYTDTLEKCNTCGEPITDRMLRATGKAYHPHCFTCVVCARPLEGTSFIVDQANRPHCVPDYHKQYAPRCSVCSEPIMPEPGRDETVRVVALDKNFHMKCYKCEDCGKPLSIEADDNGCFPLDGHVLCRKCHTARAQT
partner: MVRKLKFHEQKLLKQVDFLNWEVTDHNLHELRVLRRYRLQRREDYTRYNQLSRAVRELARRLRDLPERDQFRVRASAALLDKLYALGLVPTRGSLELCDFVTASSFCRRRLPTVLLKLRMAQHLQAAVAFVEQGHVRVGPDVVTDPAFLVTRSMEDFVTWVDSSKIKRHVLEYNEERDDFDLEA
B2: "Delta(3,5)-Delta(2,4)-dienoyl-CoA isomerase, mitochondrial" (Homo sapiens), Q13011 (parent)
chain: MAAGIVASRRLRDLLTRRLTGSNYPGLSISLRLTGSSAQEEASGVALGEAPDHSYESLRVTSAQKHVLHVQLNRPNKRNAMNKVFWREMVECFNKISRDADCRAVVISGAGKMFTAGIDLMDMASDILQPKGDDVARISWYLRDIITRYQETFNVIERCPKPVIAAVHGGCIGGGVDLVTACDIRYCAQDAFFQVKEVDVGLAADVGTLQRLPKVIGNQSLVNELAFTARKMMADEALGSGLVSRVFPDKEVMLDAALALAAEISSKSPVAVQSTKVNLLYSRDHSVAESLNYVASWNMSMLQTQDLVKSVQATTENKELKTVTFSKL
B3: Nucleoside diphosphate kinase homolog 5 (Homo sapiens), P56597 (parent)
chain: MEISMPPPQIYVEKTLAIIKPDIVDKEEEIQDIILRSGFTIVQRRKLRLSPEQCSNFYVEKYGKMFFPNLTAYMSSGPLVAMILARHKAISYWLELLGPNNSLVAKETHPDSLRAIYGTDDLRNALHGSNDFAAAEREIRFMFPEVIVEPIPIGQAAKDYLNLHIMPTLLEGLTELCKQKPADPLIWLADWLLKNNPNKPKLCHHPIVEEPY
B4: Vacuolar protein sorting-associated protein 37B (Homo sapiens), Q9H9H4 (parent)
chain: MAGAGSEARFAGLSLVQLNELLEDEGQLTEMVQKMEETQNVQLNKEMTLASNRSLAEGNLLYQPQLDTLKARLTQKYQELQVLFEAYQIKKTKLDRQSSSASLETLLALLQAEGAKIEEDTENMAEKFLDGELPLDSFIDVYQSKRKLAHMRRVKIEKLQEMVLKGQRLPQALAPLPPRLPELAPTAPLPYPAPEASGPPAVAPRRIPPPPPPVPAGRLATPFTAAMSSGQAVPYPGLQCPPLPPRVGLPTQQGFSSQFVSPYPPPLPQRPPPRLPPHQPGFILQ
partner: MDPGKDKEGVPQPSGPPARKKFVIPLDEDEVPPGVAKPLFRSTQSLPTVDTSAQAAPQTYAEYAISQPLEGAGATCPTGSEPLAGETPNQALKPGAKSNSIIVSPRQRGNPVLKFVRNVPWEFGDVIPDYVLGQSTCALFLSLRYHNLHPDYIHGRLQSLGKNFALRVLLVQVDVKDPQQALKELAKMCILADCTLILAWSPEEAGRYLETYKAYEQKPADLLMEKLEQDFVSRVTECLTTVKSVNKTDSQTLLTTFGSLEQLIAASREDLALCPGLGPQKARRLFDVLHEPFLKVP
B5: Notch homolog 2 N-terminal-like protein A (Homo sapiens), Q7Z3S9 (parent)
chain: MCVTYHNGTGYCKCPEGFLGEYCQHRDPCEKNRCQNGGTCVAQAMLGKATCRCASGFTGEDCQYSTSHPCFVSRPCLNGGTCHMLSRDTYECTCQVGFTGKECQWTDACLSHPCANGSTCTTVANQFSCKCLTGFTGQKCETDVNECDIPGHCQHGGTCLNLPGSYQCQCLQGFTGQYCDSLYVPCAPSPCVNGGTCRQTGDFTFECNCLPETVRRGTELWERDREVWNGKEHDEN
partner: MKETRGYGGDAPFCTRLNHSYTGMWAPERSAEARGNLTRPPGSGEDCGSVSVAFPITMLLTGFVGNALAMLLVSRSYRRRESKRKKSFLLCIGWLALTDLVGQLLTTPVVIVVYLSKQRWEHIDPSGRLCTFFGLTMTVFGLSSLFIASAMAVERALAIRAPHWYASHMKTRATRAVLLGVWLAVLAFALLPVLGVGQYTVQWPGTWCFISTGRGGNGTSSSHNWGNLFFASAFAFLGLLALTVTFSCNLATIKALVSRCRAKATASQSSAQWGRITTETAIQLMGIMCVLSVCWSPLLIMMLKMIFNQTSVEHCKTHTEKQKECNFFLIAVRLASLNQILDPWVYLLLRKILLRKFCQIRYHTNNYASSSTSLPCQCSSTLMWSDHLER
B6: THAP domain-containing protein 7 (Homo sapiens), Q9BT49 (parent)
chain: MPRHCSAAGCCTRDTRETRNRGISFHRLPKKDNPRRGLWLANCQRLDPSGQGLWDPASEYIYFCSKHFEEDCFELVGISGYHRLKEGAVPTIFESFSKLRRTTKTKGHSYPPGPAEVSRLRRCRKRCSEGRGPTTPFSPPPPADVTCFPVEEASAPATLPASPAGRLEPGLSSPFSDLLGPLGAQADEAGCSAQPSPERQPSPLEPRPVSPSAYMLRLPPPAGAYIQNEHSYQVGSALLWKRRAEAALDALDKAQRQLQACKRREQRLRLRLTKLQQERAREKRAQADARQTLKEHVQDFAMQLSSSMA
partner: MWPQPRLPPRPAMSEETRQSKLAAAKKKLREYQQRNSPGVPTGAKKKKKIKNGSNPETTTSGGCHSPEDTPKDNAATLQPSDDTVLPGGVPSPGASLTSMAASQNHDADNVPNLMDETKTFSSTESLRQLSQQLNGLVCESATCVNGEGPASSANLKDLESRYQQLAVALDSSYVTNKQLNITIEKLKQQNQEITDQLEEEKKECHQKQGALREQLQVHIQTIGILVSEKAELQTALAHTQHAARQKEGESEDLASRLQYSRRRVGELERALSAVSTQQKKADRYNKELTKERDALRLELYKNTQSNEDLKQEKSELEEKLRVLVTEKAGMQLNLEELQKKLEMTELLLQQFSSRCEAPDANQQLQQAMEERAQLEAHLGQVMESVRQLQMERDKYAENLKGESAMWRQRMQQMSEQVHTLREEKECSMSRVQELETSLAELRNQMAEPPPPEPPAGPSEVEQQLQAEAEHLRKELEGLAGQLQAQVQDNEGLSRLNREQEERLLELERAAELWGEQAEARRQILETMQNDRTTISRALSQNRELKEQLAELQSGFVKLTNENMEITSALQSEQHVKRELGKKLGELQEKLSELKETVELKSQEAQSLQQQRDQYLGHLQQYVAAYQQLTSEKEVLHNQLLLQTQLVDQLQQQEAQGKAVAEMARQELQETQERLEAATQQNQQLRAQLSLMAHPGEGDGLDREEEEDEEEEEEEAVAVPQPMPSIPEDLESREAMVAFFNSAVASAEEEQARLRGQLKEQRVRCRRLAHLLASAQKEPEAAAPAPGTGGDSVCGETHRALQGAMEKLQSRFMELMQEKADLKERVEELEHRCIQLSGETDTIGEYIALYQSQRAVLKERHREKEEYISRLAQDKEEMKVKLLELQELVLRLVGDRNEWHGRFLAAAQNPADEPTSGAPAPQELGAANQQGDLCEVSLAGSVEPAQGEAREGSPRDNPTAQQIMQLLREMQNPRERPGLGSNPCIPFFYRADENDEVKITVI
B7: Syntaxin-binding protein 4 (Homo sapiens), Q6ZWJ1 (parent)
chain: MNKNTSTVVSPSLLEKDPAFQMITIAKETGLGLKVLGGINRNEGPLVYIQEIIPGGDCYKDGRLKPGDQLVSVNKESMIGVSFEEAKSIITGAKLRLESAWEIAFIRQKSDNIQPENLSCTSLIEASGEYGPQASTLSLFSSPPEILIPKTSSTPKTNNDILSSCEIKTGYNKTVQIPITSENSTVGLSNTDVASAWTENYGLQEKISLNPSVRFKAEKLEMALNYLGIQPTKEQHQALRQQVQADSKGTVSFGDFVQVARNLFCLQLDEVNVGAHEISNILDSQLLPCDSSEADEMERLKCERDDALKEVNTLKEKLLESDKQRKQLTEELQNVKQEAKAVVEETRALRSRIHLAEAAQRQAHGMEMDYEEVIRLLEAKITELKAQLADYSDQNKESVQDLKKRIMVLDCQLRKSEMARKTFEASTEKLLHFVEAIQEVFSDNSTPLSNLSERRAVLASQTSLTPLGRNGRSIPATLALESKELVKSVRALLDMDCLPYGWEEAYTADGIKYFINHVTQTTSWIHPVMSVLNLSRSEENEEDCSRELPNQKS
partner: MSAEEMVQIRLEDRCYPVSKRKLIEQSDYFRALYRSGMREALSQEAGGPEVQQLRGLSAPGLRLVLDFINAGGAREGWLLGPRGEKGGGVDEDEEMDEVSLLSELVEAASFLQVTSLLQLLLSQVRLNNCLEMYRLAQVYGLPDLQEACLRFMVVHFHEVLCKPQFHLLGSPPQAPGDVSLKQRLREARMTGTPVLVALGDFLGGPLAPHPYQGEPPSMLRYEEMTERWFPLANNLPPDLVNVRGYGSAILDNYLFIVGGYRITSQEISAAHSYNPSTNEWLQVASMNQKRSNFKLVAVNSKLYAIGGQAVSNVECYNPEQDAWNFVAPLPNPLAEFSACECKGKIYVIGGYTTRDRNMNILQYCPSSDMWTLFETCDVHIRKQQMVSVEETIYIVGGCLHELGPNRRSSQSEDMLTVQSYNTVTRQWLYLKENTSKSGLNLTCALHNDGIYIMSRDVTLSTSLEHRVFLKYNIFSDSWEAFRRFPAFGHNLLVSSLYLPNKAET

Variants of: B1
Settings: with imp3_human IMP3, Q9NV31

| effect of a mutation on the interaction | Variant |
| --- | --- |
| with no effect | R563Q |
| with no effect | R489W |

Variants of: B2
Settings: with traf1_human TRAF1, Q13077
Chain of traf1_human TRAF1, Q13077 (Q13077 whole entry): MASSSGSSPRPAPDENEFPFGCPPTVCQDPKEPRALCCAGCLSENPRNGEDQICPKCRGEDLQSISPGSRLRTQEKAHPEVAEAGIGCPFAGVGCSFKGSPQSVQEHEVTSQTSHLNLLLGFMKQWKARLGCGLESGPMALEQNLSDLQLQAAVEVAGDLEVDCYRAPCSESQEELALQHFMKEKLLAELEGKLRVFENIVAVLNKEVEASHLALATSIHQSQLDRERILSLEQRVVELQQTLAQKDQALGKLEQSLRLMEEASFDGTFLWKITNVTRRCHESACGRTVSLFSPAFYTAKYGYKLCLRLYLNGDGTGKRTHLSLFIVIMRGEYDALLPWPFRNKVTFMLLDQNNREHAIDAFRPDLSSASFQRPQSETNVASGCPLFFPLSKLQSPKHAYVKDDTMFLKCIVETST

| effect of a mutation on the interaction | Variant |
| --- | --- |
| with no effect | E41A |

Variants of: B3
Settings: with dydc1_human DYDC1, Q8WWB3
Chain of dydc1_human DYDC1, Q8WWB3 (Q8WWB3 whole entry): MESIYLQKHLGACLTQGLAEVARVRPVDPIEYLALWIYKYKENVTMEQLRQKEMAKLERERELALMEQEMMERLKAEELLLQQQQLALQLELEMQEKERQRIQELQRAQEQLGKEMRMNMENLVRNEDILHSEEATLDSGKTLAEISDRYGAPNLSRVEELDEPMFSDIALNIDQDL

| effect of a mutation on the interaction | Variant |
| --- | --- |
| with no effect | I165M |
| with no effect | N198D |
| with no effect | S50N |
| with no effect | L103F |

Variants of: B4
Settings: with ercc1_human ERCC1, P07992

| effect of a mutation on the interaction | Variant |
| --- | --- |
| with no effect | M151I |

Variants of: B5
Settings: with pe2r3_human PTGER3, P43115

| effect of a mutation on the interaction | Variant |
| --- | --- |
| with no effect | A115T |
| with no effect | R74Q |

Variants of: B6
Settings: with goga2_human GOLGA2, Q08379

| effect of a mutation on the interaction | Variant |
| --- | --- |
| with no effect | E168D |

Variants of: B7
Settings: with klh42_human KLHL42, Q9P2K6

| effect of a mutation on the interaction | Variant |
| --- | --- |
| with no effect | C120R |
